# Test results taken from the supplement of paper PMC9170038.
# Test system: MS2 coat protein
# Test: apparent KD of MS2 coat protein; designed switch direction (-1 OFF switch, 1 ON switch): 1; higher = weaker reporter binding
# Method in brief: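 SNAP-549-labelled MS2 coat protein was titrated, doubling from 0.7 or 1.5 nM to 3 µM, over designed RNA switches transcribed on Illumina chips by stalled E. coli RNA polymerase. Runs were done without input, with 200 uM small-molecule ligand, or with an oligonucleotide input. Apparent KD is the per-design median over clusters of curve-fitted normalised fluorescence.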
# [1] = input ligand: microRNA oligo, concentration not stated
# [2] = Eterna round: R95, input ligand: FMN 200 uM
# [3] = Eterna round: R95, input ligand: microRNA oligo, concentration not stated
# [4] = Eterna round: R95, input ligand: none
Sequence,apparent KD of MS2 coat protein (input ligand: FMN 200 uM) [µM],apparent KD of MS2 coat protein [1] [µM],apparent KD of MS2 coat protein (input ligand: none) [µM],apparent KD of MS2 coat protein [2] [µM],apparent KD of MS2 coat protein [3] [µM],apparent KD of MS2 coat protein [4] [µM]
"AGGCCAUCGGGAGGAUAUGGCACCUUAUUGGUGCCAGAAGGUCCAACAUGAGGAUCACCCAUGUGGGAGAGUUCUAAUGAACAU [Fiskers NG1(SS) - 3] (Eterna round: R96, puzzle: Same State NG 1)",0.0284,0.0253,0.0322,,,
"UGGCUGGUGCUAGGAUAUGCAUGAGGCCUCCUCGUAGAAGGAGCACGACAUGAGGAUCACCCAUGUGGCCGUCCGUAGACGGCU [salish99_SSNG1_r04_013] (Eterna round: R96, puzzle: Same State NG 1)",0.0625,0.0359,0.0612,,,
GGCUAUCGGCGUACCGAUAGCUGGUAUGUACAUGAGGAUCACCCAUGUCAUGUACAGGCUUUUUGCUCGUCUUAUUG [JL-shm-2.39 JL mod] (puzzle: Sensor for hsa-mir-208a),,,,0.134,0.0303,0.149
"CUUUUUAGUGCAGGAUAUGAUCAACAUGAGGAUCACCCAUGUGGCGUUGUGAGUAGGGAGAGUGAUCAGAAGGGCGUCUCCGCG [SS-NG2-LRO11] (Eterna round: R96, puzzle: Same State NG 2)",0.072,0.0361,0.0599,,,
AGUCCAGCCUGAGCUGGACAAGAGCAUGUACAUGAGGAUCACCCAUGUCAUGUACAAGCUUUUUGCUCGUCUUAAUA [Zipper 49 - 2] (puzzle: Sensor for hsa-mir-208a),,,,0.47,0.0149,0.529
"AAGGUGCAGGUACAGGAUAUGUUGCUCGUAACAUGAGGAUCACCCAUGUACCUAUGAGAUUAAAUGCAGAAGGGUGCACACCAAA [Mat - Same State 2 - Mod of UCT - D91] (Eterna round: R96, puzzle: Same State 2)",0.0706,0.168,0.731,,,
"GAGGGACAGACCAACAUGAGGAUCACCCAUGUCCUCGGAGGUCAGGAUAUCCGGAGGUAGCCGAAGGAGAAGGGACGGUGAACC [AK SSNG3-V2-30.1] (Eterna round: R96, puzzle: Same State NG 3)",0.322,0.136,0.197,,,
"GUGGUGAAUUAAGGAUAUCGAGUCUAGAUGUUAAACAUGAGGAUCACCCAUGUGGGUUGCGGUGUCGAGAAGGUGAUUUACGGG [salish99_SSNG2_r04_509] (Eterna round: R96, puzzle: Same State NG 2)",0.0822,0.0796,0.104,,,
"AGGCUCAGACGAGGAUAUAUGUAAUAACAUGAGGAUCACCCAUGUGUCGAGCUUCGGCUCGACACAUAGAAGGCGUCUGAGCCA [SSNG2/2-A1] (Eterna round: R96, puzzle: Same State NG 2)",0.00875,0.0174,0.0257,,,
UUAUAACAUGAGGAUCACCCAUGUCAACAAAGUCGAGGAUAUGGGCAUAGAGGAUAAGAACCAGAAGGCGAAUAUU [Mat - Same State 1 - Mod of UCT - D39] (puzzle: Same State 1),,,,0.0708,0.15,0.163
"GAGUAGUUGGAAGGAUAUCGAUUGUUAUAGAAUCGAGAAGGUCCUAACAUGAGGAUCACCCAUGUAGGACUAUUCCUGUGUAUC [Parity 76 - Jieux - Same State NG 1] (Eterna round: R96, puzzle: Same State NG 1)",,0.00812,,,,
GUACUACAUGAGGAUCACCCAUGUACAAAGGUACGAGGAUAUGCAUGGACGAAAGUUGGUGCAGAAGGCGUGGUAC [Pin2Pin #5] (puzzle: Same State 1),,,,0.0218,0.0246,0.0229
GUAAAACAUGAGGAUCACCCAUGUCAACAAAGUCGAGGAUAUGGGCAAAUAAAAUAAGAACCAGAAGGCGAAUAAU [salish99_SS1_r3_011] (puzzle: Same State 1),,,,0.0316,0.254,0.325
"GGAUGAUUAAUAGGAUAUUAUUUGUAAUUUGGUUAAGAAGGAUUAAUGAUUUAAACGACCUGUUACAUGAGGAUCACCCAUGUU [JR_SSNG1_Sub089] (Eterna round: R96, puzzle: Same State NG 1)",,0.0765,,,,
GUGCUACAUGAGGAUCACCCAUGUACAAAUGUACGAGGAUAUGCAUGGGCUAAUGCUGGUGCAGAAGGCGUAGCGC [Pin2Pin #7] (puzzle: Same State 1),,,,0.018,0.0339,0.0415
"AUUUUUAAUGCAGGAUAUGAUUAACAUGAGGAUCACCCAUGUGGUGUUGUGAGUAAGGAGAGUGAUCAGAAGGGCAUUUUUUUU [JMF's solution 30] (Eterna round: R96, puzzle: Same State NG 2)",0.726,0.354,0.456,,,

Sequence,apparent KD of MS2 coat protein (input ligand: FMN 200 uM) [µM],apparent KD of MS2 coat protein [1] [µM],apparent KD of MS2 coat protein (input ligand: none) [µM],apparent KD of MS2 coat protein [2] [µM],apparent KD of MS2 coat protein [3] [µM],apparent KD of MS2 coat protein [4] [µM]
GAUAAACAUGAGGAUCACCCAUGUAAUAAUAUGGGAGGAUAUCAGAAUGUAUGUAUGUAAUGAGAAGGCCUAAAUG [Mat - Same State 1 - Mod of Eli - D73] (puzzle: Same State 1),,,,0.104,0.425,0.309
"GUGGUCAGACAUGAGGAUCACCCAUGUGGAAUAAAUAAGGGACAGGAUAUCCAAUAUAGGAUAUAGGAGAAGGGUUGGUUGGUG (Eterna round: R96, puzzle: Same State NG 3)",0.0789,0.0645,0.0739,,,
ACACAGCUGGGUGAGGAUAUCGGUGGUAAAACAUGAGGAUCACCCAUGUCCGAAGCUCGGACUUCCGAGAAGGCGCCCGGCUGCA [Areronanma] (puzzle: Same State 2),,,,0.0124,0.0864,0.151
AGUCCAGCAAGAGCUGGACAAAAGCAUGUACAUGAGGAUCACCCAUGUUCAUGUACAAGCUUUUUGCAAGUCAAAAG [Mat - hsa-mir-208a - Mod of JL - 73] (puzzle: Sensor for hsa-mir-208a),,,,0.321,0.0239,0.416
"GCGAGCGUACUUGCAGACAUGAGGAUCACCCAUGUAACUGGACAGGAUAUGGUACCGUUUCGGUACCAGAAGGGUUCAUAUGUC [JL SSNG3 3.53] (Eterna round: R96, puzzle: Same State NG 3)",0.0676,0.0508,0.0794,,,
"AUAAUACAUGAGGAUCACCCAUGUAAUUUAACUUGUAAGAUCAAGGAUAUCAGCUCGAAUAGAGCUGAGAAGGUGAUCACAUGU [SSNG3/20-A1] (Eterna round: R96, puzzle: Same State NG 3)",,0.0707,,,,
UGUUAACAUGAGGAUCACCCAUGUCAAAUGAAUCGAGGAUAUGGAAAGUAAUAAGAUGAACUAGAAGGCGAAGUUG [Altered State 1-18 - Jieux - Same State 1] (puzzle: Same State 1),,,,0.0462,0.0879,0.0867
"GCUGCAAGGGCAGGAUAUGGGUUCAGAGCGGAAGUGCGCUUUGAUACAUGAGGAUCACCCAUGUCCCAGAAGGGCCCAUGCGGC [Arredibi] (Eterna round: R96, puzzle: Same State NG 2)",0.0191,0.0784,0.113,,,
"UAAAUACAUGAGGAUCACCCAUGUCAAAAGACAUGAGGAUAUGUACAGUCUUCGGUCUGUACAGAAGGCAUGAAUA [salish99_ss1_r3_097] (Eterna round: R96, puzzle: Same State 1)",0.0521,0.37,0.461,,,
AGUCCAGCCUGAGCUGGACAAAAGCAUGUACAUGAGGAUCACCCAUGUUCAUGUACAAGUUUUUUGCUCGUCUUAAA [Zipper 52 - 10] (puzzle: Sensor for hsa-mir-208a),,,,0.0384,0.0111,0.0396
"GCUACCAUUGAAGCCAACAUGAGGAUCACCCAUGUAUGUUGGCAGGAUAUCGAUUGCAAAGCGAUCGAGAAGGGCUAAGGUAGC [Mat - Same State NG 3 - JL Mod - D86] (Eterna round: R96, puzzle: Same State NG 3)",0.0922,0.0628,0.117,,,
"GCUAGAAUUAAAGCCAACAUGAGGAUCACCCAUGUAUGUUGGUAGGAUAUCGUUUGCAAAGCAAACGAGAAGGGCUAAUCUAGC [Mat - Same State NG 3 - JL Mod - D64] (Eterna round: R96, puzzle: Same State NG 3)",0.087,0.0482,0.0802,,,
"AGAUAUCCACGACAUGAGGAUCACCCAUGUUGCUACGACAUGGAGGAUAUUCACGAUACACCUGUGAAGAAGGCUAAGGAUAUU [Eternabot solution 16] (Eterna round: R96, puzzle: Same State NG 3)",0.631,0.508,0.776,,,
"AGGCUCAGAGCAGGAUAUAUGUCUCGAGCUUCGGCUCGAGACAUGAGGAUCACCCAUGUAAUAACAUAGAAGGGCUCUGAGCCA [SSNG2/1-B1] (Eterna round: R96, puzzle: Same State NG 2)",0.0112,0.0458,0.0634,,,
GGUCCAGCCUGAGCUGGACAAAAGCAUGUACAUGAGGAUCACCCAUGUUCAUGUACAAGCUUUUUGCUCGUCUUAAA [salish99_208a_r3_035] (puzzle: Sensor for hsa-mir-208a),,,,0.427,0.0147,0.633
